Results published in patent US20130137856A1 (published 2013).
Changes are numbered by the printed parent chain.

How the values were obtained:
[1] = molecular target: β2AR truncated after amino acid 365 (β2AR-365) having an amino terminal Flag epitope tag, native, … (human, UniProt P07550 1-365); assay: cell-based or functional assay
[2] = molecular target: full-length human β2AR in commercial insect cell-derived membranes (human, UniProt P07550 1-413); assay: cell-based or functional assay

B1: Nb71 (VHH, not shown: small tags and cut ends)
VHH: QVQLQESGGGLVQPGGSLRLSCAASGFAFSSYELRWYRQAPGKQHELVAGITTGGNTYYADSVKGRFTISRDNAKNTVYLQMSNLRPEDTAVYACNANWDLLSDYWGQGTQVTVSS
Isoproterenol Ki, [3H]-DHA competition binding on Sf9 membranes in the presence of 1 µM nanobody (β2AR alone: 295) [1]: 10.6 nM

B2: Nb67 (VHH, not shown: small tags and cut ends)
VHH: QVQLQESGGGLVQAGGSLRLSCAASGTISSFIAMGWYRQSPGKQRELVAGITSGGETNYEDSVKGRFTISRDNAKNTLYLQMNTLKPEDTAVYYCNAQVFADIFNLINYWGQGTQVTVSS
Isoproterenol Ki, [3H]-DHA competition binding on Sf9 membranes in the presence of 1 µM nanobody (β2AR alone: 295) [1]: 19.4 nM

B3: Nanobody-80 (Nb80) (VHH, not shown: small tags and cut ends)
VHH: QVQLQESGGGLVQAGGSLRLSCAASGSIFSINTMGWYRQAPGKQRELVAAIHSGGSTNYANSVKGRFTISRDNAANTVYLQMNSLKPEDTAVYYCNVKDYGAVLYEYDYWGQGTQVTVSS
Potency shift of CGP12177A (antagonist): IC50 with irrelevant Nb / IC50 with 500 nM Nb80, 3H-DHA competition [2]: 1 ratio
Potency shift of ICI118,551 (inverse agonist): IC50 with irrelevant Nb / IC50 with 500 nM Nb80, 3H-DHA competition [2]: 0.9 ratio
Potency shift of alprenolol (antagonist): IC50 with irrelevant Nb / IC50 with 500 nM Nb80, 3H-DHA competition [2]: 1.1 ratio
Potency shift of carvedilol (antagonist): IC50 with irrelevant Nb / IC50 with 500 nM Nb80, 3H-DHA competition [2]: 1.2 ratio
Potency shift of dobutamine (partial agonist): IC50 with irrelevant Nb / IC50 with 500 nM Nb80, 3H-DHA competition [2]: 2.3 ratio
Potency shift of fenoterol (full agonist): IC50 with irrelevant Nb / IC50 with 500 nM Nb80, 3H-DHA competition [2]: 3.7 ratio
Potency shift of formoterol (agonist): IC50 with irrelevant Nb / IC50 with 500 nM Nb80, 3H-DHA competition [2]: 4 ratio
Potency shift of isoproterenol (agonist): IC50 with irrelevant Nb / IC50 with 500 nM Nb80, 3H-DHA competition [2]: 8.8 ratio
Potency shift of metaproterenol (agonist): IC50 with irrelevant Nb / IC50 with 500 nM Nb80, 3H-DHA competition [2]: 2.9 ratio
Potency shift of procaterol (agonist): IC50 with irrelevant Nb / IC50 with 500 nM Nb80, 3H-DHA competition [2]: 2.3 ratio
Potency shift of ritodrine (agonist): IC50 with irrelevant Nb / IC50 with 500 nM Nb80, 3H-DHA competition [2]: 2.7 ratio
Potency shift of salbutamol (partial agonist): IC50 with irrelevant Nb / IC50 with 500 nM Nb80, 3H-DHA competition [2]: 4.2 ratio
Potency shift of salmeterol (full agonist): IC50 with irrelevant Nb / IC50 with 500 nM Nb80, 3H-DHA competition [2]: 3.3 ratio
Potency shift of terbutaline (partial agonist): IC50 with irrelevant Nb / IC50 with 500 nM Nb80, 3H-DHA competition [2]: 4.3 ratio
Potency shift of timolol (antagonist): IC50 with irrelevant Nb / IC50 with 500 nM Nb80, 3H-DHA competition [2]: 0.6 ratio

B4: Nb65 (VHH, not shown: small tags and cut ends)
VHH: B3 VHH with N61D, K64R, A75K
Isoproterenol Ki, [3H]-DHA competition binding on Sf9 membranes in the presence of 1 µM nanobody (β2AR alone: 295) [1]: 13.8 nM
